A protein production outcome set (Wang et al. 2014)

Assay: label from the status in PepcDB records

Sequence | protein production
MRPTITALVLTYNGERLLDRCLGSLAFCDRILVVDSFSTDATVAIAQAAGAEVLQRKWEGPGPQFAFALEKISDGWIVSLDQDEICSEELRDSILAATAADSGEAGYWIPRRSWYFDRFLKHSGWYPDHLLRLFRAGRMRVEVSGAHYSFHPDGETGTLTGDILHYPYESFRQHLDKVNDYAQKGADDLRAKGKRGGLCAGLCHGAGRFIRIYIIKRGFLDGRAGFINAIHGAFYAFLKHLRIEEGDWGRPFEHKLEHHHHHH | not failed
MDNRSASLHSDIDTVLNNYDYDFAEVEIAVLGNGHINNTYKLTTPEVEFVLQQINHDVFPKTAELSSNAQKINLHLQRQKNIGNYPLSIPQQILSKTGETYSKVGTNYWRLMEFISNSYTLEEVESPEQAALVANAFAEFSCTLSDFPVEELAVIIEDFHDISFRMRQLNEAVENDLQDRLSSCQTLVNFCLDQQDFINHVIDISKKLPLHVTHNDTKINNLLFTEGDTPCAVIDLDTCMPGLLMHDFGDMVRTCCSNLAEDDTNIDAMIIKLDIFSALIQSYQNAFGTKMSALEKDSLIVGTKSVPFSLGTRFLTDYLNGDSYFQVSREKHNLDRAFNQIQLFILLCEAEPELIKLAMQALEHHHHHH | failed
MSSNECFKCGRSGHWARECPTGGGRGRGMRSRGRGGFTSDRGFQFVSSSLPDICYRCGESGHLAKDCDLQEDACYNCGRGGHIAKDCKEPKREREQCCYNCGKPGHLARDCDHADEQKCYSCGEFGHIQKDCTKVKCYRCGETGHVAINCSKTSEVNCYRCGESGHLARECTIEATA | not failed
MSLTAQIRLAEPADLNDDTLRARAVAAARGDQRFDVLITGGTLVDVVTGELRPADIGIVGALIASVHEPASRRDAAQVIDAGGAYVSPGLIDTHMHIESSMITPAAYAAAVVARGVTTIVWDPHEFGNVHGVDGVRWAAKAIENLPLRAILLAPSCVPSAPGLERGGADFDAAILADLLSWPEIGGIAEIMNMRGVIERDPRMSGIVQAGLAAEKLVCGHARGLKNADLNAFMAAGVSSDHELVSGEDLMAKLRAGLTIELRGSHDHLLPEFVAALNTLGHLPQTVTLCTDDVFPDDLLQGGGLDDVVRRLVRYGLKPEWALRAATLNAAQRLGRSDLGLIAAGRRADIVVFEDLNGFSARHVLASGRAVAEGGRMLVDIPTCDTTVLKGSMKLPLRMANDFLVKSQGAKVRLATIDRPRFTQWGETEADVKDGFVVPPEGATMISVTHRHGMAEPTTKTGFLTGWGRWNGAFATTVSHDSHNLTVFGGNAGDMALAANAVIGTGGGMAVASEGKVTAILPLPLSGLVSDAPLEEVARAFEDLREAVGKVVEWQPPYLVFKACFGATLACNIGPHQTDMGIADVLTGKVMESPVIEVLGEGHHHHHH | not failed
MLSHMDGGTAGARVREVGWLAATLTALLLALLLEHYVIHEQMILPWIAVSPEVPPWMLGAQVVPEIIVCFLFGWRLRGLGWIVIYGAAAAALRQSFYALLTRIGASGHPETLFGPPSEFARTAPLVAVMYFMAFGLASMGAREPGPLPGARSRP | failed
MDTLEPTAVDTHVSAEQILRDVYKKGQKARGSTNIDILDLEELREYQRRKRTEYEGYLKRNRLDMGQWIRYAQFEIEQHDMRRARSIFERALLVDSSFIPLWIRYIDAELKVKCINHARNLMNRAISTLPRVDKLWYKYLIVEESLNNVEIVRSLYTKWCSLEPGVNAWNSFVDFEIRQKNWNGVREIYSKYVMAHPQMQTWLKWVRFENRHGNTEFTRSVYSLAIDTVANLQNLQIWSDMEVAKLVNSFAHWEAAQQEYERSSALYQIAIEKWPSNQLLKAGLLDFEKQFGDINSIEETISYKRKMEYETILSNNAYDYDTWWLYLDLISESFPKQIMQTFEKAIVDSRPKELSKNVQWKRYIYLWMRYICYVELELENSLLEEELFQRLIDDIIPHKHFTFSKIWLMYAKFLIRHDDVPKARKILGKAIGLCPKAKTFKGYIELEVKLKEFDRVRKIYEKFIEFQPSDLQIWSQYGELEENLGDWDRVRGIYTIALDENSDFLTKEAKIVLLQKYITFETESQEFEKARKLYRRYLELNQYSPQSWIEFAMYQTSTPTEQQLLDLAKLQSENVDEDIEFEITDENKLEARKVFEEAIVFFKEKDDKQGRLSILEALKDYEETYGTELDQETVKKRFPKVIKKVRLQNGVEEEFVDYIFPDDIDDDKPKPSKFLELAKKWKQEQAL | failed
MMMGRIKPTDGTAGNPEFNAELVAEKIEAITSPPPAPDTSEPDAAASQPAAPQTAAPPAQTVAQPAPVTPPIVSEPPAPQQAAAAPQPAVDESALRYFASRGDKVRLQAEISRLQALYPNWVPPADPLAVPQNGDKQLEAMWQLYSDGRYAELRKAVADRQAADAGWQPPADLLDRLDVAEGRARLVNASDLKQYATVVDIAAATPSLLTCSEIDVLWRVAEAFIQTERAQRGQDAYTYILKNCTNPAERQATVEKASTLLAYQPMQALLALERPAADGSKEFDAIRDNLARRFMAEGDDEPNLAIAPDYIARLEKLAETQGLASDALLLGWYQLRRNNDADAEKWFRAARAKQDSAAASQGLALALIARKAPEEAEDVMFRWRADSDDATSTYLAATANLMALQPPADLAEDVLHRIAGEVIARKYVPTAQQFGWYARSLNQFQTAARWFETALAWKPDDEPSAYGLVITREQLSDRKGVLDLQRAWAGRSSRITNLEDTSSLMPNAVTPPPAKGTLAAQQPAQPTQHPPAEPLPAERRVILQPGSEVVVRAARPSMETVNVPRGPRQTRGCSTTIDAGQLKPADALSRGWCLMDINRPMEAISAFESALQSPSRKVREDAAYGQSLAYLRAGLSGNAAVAATKAPQNRQRAAELQVAILADRALSAFDAGRYRETLIYLDQRAQLQQERIDLMVLRGYCYLNLKMYGDATRIFEAAAATGSRDAARGLADVRNVTHPDVND | failed
MGSGKERDTFVYLAKLSEQAERYEEMVESMKSVAKLNVDLTVEERNLLSVGYKNVIGSRRASWRIFSSIEQKEAVKGNDVNVKRIKEYMEKVELELSNICIDIMSVLDEHLIPSASEGESTVFFNKMKGDYYRYLAEFKSGNERKEAADQSLKAYEIATTAAEAKLPPTHPIRLGLALNFSVFYYEIMNAPERACHLAKQAFDEAISELDTLNEESYKDSTLIMQLLRDNLTLWTSDISEEGGDDAHKTNGSAKPGAGGDDAE | failed
GHMYETIRYEVKGQVAWLTLNRPDQLNAFTEQMNAEVTKALKQAGADPNVRCVVITGAGRAFCAGEDLSGVTEEMDHGDVLRSRYAPMMKALHHLEKPVVAAVNGAAAGAGMSLALACDFRLLSEKASFAPAFIHVGLVPDAGHLYYLPRLVGRAKALELAVLGEKVTAEEAAALGLATKVIPLSDWEEEVKQFAERLSAMPTKAIGLIKRLLRESEETTFDRYLEREAECQRIAGLTSDHREGVKAFFEKRKPLFQGN | not failed
MLLHGTNRSLRTGLRARGRGSTGARGTLAVSHAAGPSSHSLTLHSCALLPYTLHAHAFFPCAQTNMASSKKAIYAAILGNFAIAVTKFLGAAVSGSSAMLAEGIHSLVDTGNGGLLLLGLRRSKRPPDENHPYGYGKSLYFYTLVVAVLIFGLGGGISLYEGILHTLDPGHGGASTASVLGVTVGGLMLNTVVLGAAIVFEGLALRTALQEFKKQRGDTPFFEAIVTSKDPTTFTVVFEDTAALAGLVVALVGIHLASLLHMPVIDGIASIIIGLILCGVAAFLIWESKKLLIGEAAAPEIRDDIRRMAHDDADIASVERLLTMHMGPRALLLNMDLRFRDDLDANTVEAAVDRLERAIRKAHPSIRYIFVEAGSIARTRASDSGASAAGGPPS | failed
MPAITRRALSAGLIAAVALSVLPFAAQAAEELKIGYQKTGLPVIARQQGVIEKALEAKGVKVSWVEFTAGPPLVEALNVGSINVGWTGDAPPIFGQAAGSAIVYVAALPSNGKGEAIFTKPESGIKSVADLKGKKVGVGKGTSAHNLLVAALEKNGLKLSDIDVTYLSPADAAAAFASDKIDAWAVWDPFYAIAETRYKPVTLARTSDVLDVKTYFLANRDYAKSHADTINTNVGALGEAAKWSAANRDKVAAALHEVTGVPLEAQTLAANRSEFGITRIDDKIVASQQETADRFYRLGLIPKQISIKDAVWSGATN | failed
MRIAGIEPESIVDGPGIRFTVFTQGCPLQCPGCHNPATWDPCGGQEVDVEEVIAAMNSSVLASGLTLSGGEASRQPRACARLARAAHEMGWDVWSWSGYTVEALMRQARRDAELADMLGQIDVLVDGPFQLVHRTLTLPWRGSSNQRVIDMPATLRGGRAVEWADRAGNLR | failed
MSQSPILFFQHGMGESNQNMQILAGRVASENAYVVVPNLNLLTTFLNLDPLIEVVERSASETLNDFPQSTFSVVGFSMGGILWVEVLSRNPSWLERLDALVLIGSPIQGASLARTVDLFGWGIGIAQELGRNRQYLAEKITQKIPTLVIAGSVNGGGDGVIPIESTRLNGTHFFTRNNVKHQDLPIDLIIGEKVKSFLLHPYLIPS | failed
